B1: His-MCAK_(S715E), full length (natural protein, human, UniProt Q99661 1-725, looked up)
chain: MAMDSSLQARLFPGLAIKIQRSNGLIHSANVRTVNLEKSCVSVEWAEGGATKGKEIDFDDVAAINPELLQLLPLHPKDNLPLQENVTIQKQKRRSVNSKIPAPKESLRSRSTRMSTVSELRITAQENDMEVELPAAANSRKQFSVPPAPTRPSCPAVAEIPLRMVSEEMEEQVHSIRGSSSANPVNSVRRKSCLVKEVEKMKNKREEKKAQNSEMRMKRAQEYDSSFPNWEFARMIKEFRATLECHPLTMTDPIEEHRICVCVRKRPLNKQELAKKEIDVISIPSKCLLLVHEPKLKVDLTKYLENQAFCFDFAFDETASNEVVYRFTARPLVQTIFEGGKATCFAYGQTGSGKTHTMGGDLSGKAQNASKGIYAMASRDVFLLKNQPCYRKLGLEVYVTFFEIYNGKLFDLLNKKAKLRVLEDGKQQVQVVGLQEHLVNSADDVIKMIDMGSACRTSGQTFANSNSSRSHACFQIILRAKGRMHGKFSLVDLAGNERGADTSSADRQTRMEGAEINKSLLALKECIRALGQNKAHTPFRESKLTQVLRDSFIGENSRTCMIATISPGISSCEYTLNTLRYADRVKELSPHSGPSGEQLIQMETEEMEACSNGALIPGNLSKEEEELSSQMSSFNEAMTQIRELEEKAMEELKEIIQQGPDWLELSEMTEQPDYDLETFVNKAESALAQQAKHFSALRDVIKALRLAMQLEEQAERQISSKKRPQ
notes: MCAK (Kif2c), human, residues 1-725, full length; also called full-length MCAK_(S715E); source: Sf9 (baculovirus), purified

What was measured:
[1] = biological target: T1, His-MCAK motor region with the neck linker region (M) (human, UniProt Q99661 183-583); assay: SEC-MALS; motor domain with CT domain; Superdex 200 10/300 GL; 2 mg/ml in 100 mM HEPES, pH 7.2, 150 mM NaCl; conditions: both partners purified
T1 construct: MCAK (Kif2c), human, neck linker region and motor region; the methods state residues 183-583, the results state 181-583; Cloned in pET3aTr; also called motor domain; MCAK motor domain; source: E. coli BL21(DE3) Codon plus, purified (Ni-NTA, gel filtration)

[2] = biological target: B1; assay: co-sedimentation; competition: 100 nM full-length MCAK_(S715E) with 2 μM taxol-stabilized microtubules and increasing concentration of cleaved free CT domain; western blot; conditions: both partners purified
[3] = biological target: T1, His-MCAK motor region with the neck …; assay: other fluorescence titration; intrinsic tryptophan/aromatic fluorescence (excitation 295 and 280 nm) of 1 μM motor domain, CT domain titrated 0 to 15,660 nM; 25°C; 100 mM HEPES, pH 7.4, 150 mM NaCl; motor pre-treated with EDTA to remove ADP; conditions: both partners purified
[4] = biological target: T1, His-MCAK motor region with the neck …; assay: SEC; analytical gel filtration of the motor with GST-CT_(E712C) under oxidizing conditions; fractions on Coomassie-stained SDS-PAGE; conditions: both partners purified
[5] = biological target: T1, His-MCAK motor region with the neck …; assay: pull-down; resin-based binding assay: GST-CT or GST-CT point mutants (GST as a control) on glutathione agarose beads; purified His-M, His-NM or cleaved CT domain added; Coomassie-stained gel; conditions: both partners purified
[6] = biological target: the molecule itself; assay: SEC; gel filtration of full-length MCAK proteins alone; elution compared with wild type full-length MCAK

Binder | binding result [5] | binding result [6] | other results
VIKALRLAMQLEEQASRQISSKKRPQ (peptide, UniProt Q99661 700-725, looked up, MCAK (Kif2c) C-terminal tail (CT domain), human, residues 700-725 as stated; also called free CT domain; C terminus; source: E. coli BL21(DE3) Codon plus, purified as GST fusion, GST cleaved with GST-3C protease and removed) [MCAK C-terminal tail (CT) domain, GST cleaved and removed] | – | – | stoichiometry N [1]: 0.5 CT domain per motor domain; binding result [2]: binds; Kd [3]: ~1100 nM
VIKALRLAMQLECQASRQISSKKRPQ (domain or fragment, human, UniProt Q99661 700-725, looked up, MCAK (Kif2c) CT domain, human, residues 700-725 as stated (the printed primers of the parent encode 701-725); Designed to form a disulphide bridge with Cys287 of the motor domain without DTT; source: E. coli BL21(DE3) Codon plus, purified (glutathione-sepharose, gel filtration)) [GST-CT_(E712C) domain] | – | – | stoichiometry N [4]: 0.5 CT domain per motor
VIKALRLAMQLEEQASAQISSKKRPQ (domain or fragment, human, UniProt Q99661 700-725, looked up, MCAK (Kif2c) CT domain, human, residues 700-725 as stated (the printed primers of the parent encode 701-725); source: E. coli BL21(DE3) Codon plus, purified (glutathione-sepharose, gel filtration)) [GST-CT_(R716A) domain] | binds | – | –
VIKALRLAMQLEEQASRQASSKKRPQ (domain or fragment, human, UniProt Q99661 700-725, looked up, MCAK (Kif2c) CT domain, human, residues 700-725 as stated (the printed primers of the parent encode 701-725); source: E. coli BL21(DE3) Codon plus, purified (glutathione-sepharose, gel filtration)) [GST-CT_(I718A) domain] | binds | – | –
His-MCAK (1-725), full-length MCAK (natural protein, human, UniProt Q99661 1-725, looked up, MCAK (Kif2c), human, residues 1-725, full length; Cloned in the pFL vector; also called wild type MCAK; Kif2c; source: Sf9 (baculovirus), purified) MAMDSSLQARLFPGLAIKIQRSNGLIHSANVRTVNLEKSCVSVEWAEGGATKGKEIDFDDVAAINPELLQLLPLHPKDNLPLQENVTIQKQKRRSVNSKIPAPKESLRSRSTRMSTVSELRITAQENDMEVELPAAANSRKQFSVPPAPTRPSCPAVAEIPLRMVSEEMEEQVHSIRGSSSANPVNSVRRKSCLVKEVEKMKNKREEKKAQNSEMRMKRAQEYDSSFPNWEFARMIKEFRATLECHPLTMTDPIEEHRICVCVRKRPLNKQELAKKEIDVISIPSKCLLLVHEPKLKVDLTKYLENQAFCFDFAFDETASNEVVYRFTARPLVQTIFEGGKATCFAYGQTGSGKTHTMGGDLSGKAQNASKGIYAMASRDVFLLKNQPCYRKLGLEVYVTFFEIYNGKLFDLLNKKAKLRVLEDGKQQVQVVGLQEHLVNSADDVIKMIDMGSACRTSGQTFANSNSSRSHACFQIILRAKGRMHGKFSLVDLAGNERGADTSSADRQTRMEGAEINKSLLALKECIRALGQNKAHTPFRESKLTQVLRDSFIGENSRTCMIATISPGISSCEYTLNTLRYADRVKELSPHSGPSGEQLIQMETEEMEACSNGALIPGNLSKEEEELSSQMSSFNEAMTQIRELEEKAMEELKEIIQQGPDWLELSEMTEQPDYDLETFVNKAESALAQQAKHFSALRDVIKALRLAMQLEEQASRQISSKKRPQ | – | binds | –
His-MCAK_(E712C), full length (natural protein, human, UniProt Q99661 1-725, looked up, MCAK (Kif2c), human, residues 1-725, full length; Without DTT a disulphide between Cys712 and Cys287 is intended; also called full-length MCAK_(E712C); source: Sf9 (baculovirus), purified) MAMDSSLQARLFPGLAIKIQRSNGLIHSANVRTVNLEKSCVSVEWAEGGATKGKEIDFDDVAAINPELLQLLPLHPKDNLPLQENVTIQKQKRRSVNSKIPAPKESLRSRSTRMSTVSELRITAQENDMEVELPAAANSRKQFSVPPAPTRPSCPAVAEIPLRMVSEEMEEQVHSIRGSSSANPVNSVRRKSCLVKEVEKMKNKREEKKAQNSEMRMKRAQEYDSSFPNWEFARMIKEFRATLECHPLTMTDPIEEHRICVCVRKRPLNKQELAKKEIDVISIPSKCLLLVHEPKLKVDLTKYLENQAFCFDFAFDETASNEVVYRFTARPLVQTIFEGGKATCFAYGQTGSGKTHTMGGDLSGKAQNASKGIYAMASRDVFLLKNQPCYRKLGLEVYVTFFEIYNGKLFDLLNKKAKLRVLEDGKQQVQVVGLQEHLVNSADDVIKMIDMGSACRTSGQTFANSNSSRSHACFQIILRAKGRMHGKFSLVDLAGNERGADTSSADRQTRMEGAEINKSLLALKECIRALGQNKAHTPFRESKLTQVLRDSFIGENSRTCMIATISPGISSCEYTLNTLRYADRVKELSPHSGPSGEQLIQMETEEMEACSNGALIPGNLSKEEEELSSQMSSFNEAMTQIRELEEKAMEELKEIIQQGPDWLELSEMTEQPDYDLETFVNKAESALAQQAKHFSALRDVIKALRLAMQLECQASRQISSKKRPQ | – | binds | –
B1 | – | binds | –
VIKALRLAMQLEEQAARQISSKKRPQ (domain or fragment, human, UniProt Q99661 700-725, looked up, MCAK (Kif2c) CT domain, human, residues 700-725 as stated (the printed primers of the parent encode 701-725); source: E. coli BL21(DE3) Codon plus, purified (glutathione-sepharose, gel filtration)) [GST-CT_(S715A) domain] | binds | – | –

Reference: paper PMC4443670, “The C-terminal region of the motor protein MCAK controls its structure and activity through a conformational switch” (eLife, 2015)
